The text below walks through data of the supplement of paper PMC5998384.

In series [1] the test system is HeLa Kyoto. Briefly: solubility in G1/S (NP-40 vs SDS abundance) (log2 ratio); higher = more soluble. The following applies: cell cycle stage: G1/S.
Series [2] relates to HeLa Kyoto. Briefly: solubility change mitosis vs G1/S (difference of NP-40 vs SDS log2 ratios) (log2 ratio difference); higher = more soluble in mitosis.
Series [3] concerns HeLa Kyoto. Briefly: melting temperature (median over replicates), in situ; higher = more thermally stable.
Series [4] relates to HeLa Kyoto. Briefly: thermal stability score vs G1/S (z-score of summed log2 fold changes over temperatures); higher = more thermally stable than in G1/S.
Setting [5] is: cell cycle stage: early G1 (4.5 h after nocodazole release).
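Throughout, for melting temperature (median over replicates), in situ: HeLa Kyoto cells synchronized by double thymidine or nocodazole block, proteins quantified by TMT10plex mass spectrometry, three independent biological replicates.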
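Throughout, for solubility change mitosis vs G1/S (difference of NP-40 vs SDS log2 ratios): synchronized HeLa Kyoto cells (double thymidine block for G1/S, nocodazole release for mitosis), protein amounts in NP-40 versus SDS lysates quantified by mass spectrometry, three biological replicates.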
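Throughout, for solubility in G1/S (NP-40 vs SDS abundance): HeLa Kyoto cells arrested at G1/S by double thymidine block, proteins quantified by TMT10plex mass spectrometry in mild NP-40 versus SDS extracts, three biological replicates.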
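Throughout, for thermal stability score vs G1/S (z-score of summed log2 fold changes over temperatures): synchronized HeLa Kyoto cells, proteins quantified by TMT10plex mass spectrometry, three biological replicates, mitosis taken 0.5 h after nocodazole release, G1/S directly after double thymidine block.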

Regarding “MAADISESSGADCKGDPRNSAKLDADYPLRVLYCGVCSLPTEYCEYMPDVAKCRQWLEKNFPNEFAKLTVENSPKQEAGISEGQGTAGEEEEKKKQKRGGRGQIKQKKKTVPQKVTIAKIPRAKKKYVTRVCGLATFEIDLKEAQRFFAQKFSCGASVTGEDEIIIQGDFTDDIIDVIQEKWPEVDDDSIEDLGEVKK [DENR]”, in the series with HeLa Kyoto [1], the “solubility in G1/S (log2)” value came out at 0.481. Also, in the series on HeLa Kyoto [2], the “solubility change mitosis (log2)” value is 0.142. Also, the melting temperature with HeLa Kyoto [3] (cell cycle stage: G1/S) is 56.9 °C; with HeLa Kyoto [3] (cell cycle stage: mitosis), 58.6 °C. The values for the thermal stability score in the series with HeLa Kyoto [4] (setting [5]) and in the series with HeLa Kyoto [4] (cell cycle stage: mitosis) were 0.263 and 0.467, respectively.

As to “MGTQKVTPALIFAITVATIGSFQFGYNTGVINAPEKIIKEFINKTLTDKGNAPPSEVLLTSLWSLSVAIFSVGGMIGSFSVGLFVNRFGRRNSMLIVNLLAVTGGCFMGLCKVAKSVEMLILGRLVIGLFCGLCTGFVPMYIGEISPTALRGAFGTLNQLGIVVGILVAQIFGLEFILGSEELWPLLLGFTILPAILQSAALPFCPESPRFLLINRKEEENAKQILQRLWGTQDVSQDIQEMKDESARMSQEKQVTVLELFRVSSYRQPIIISIVLQLSQQLSGINAVFYYSTGIFKDAGVQEPIYATIGAGVVNTIFTVVSLFLVERAGRRTLHMIGLGGMAFCSTLMTVSLLLKDNYNGMSFVCIGAILVFVAFFEIGPGPIPWFIVAELFSQGPRPAAMAVAGCSNWTSNFLVGLLFPSAAHYLGAYVFIIFTGFLITFLAFTFFKVPETRGRTFEDITRAFEGQAHGADRSGKDGVMEMNSIEPAKETTTNV [SLC2A3]”, the “solubility in G1/S (log2)” value in the series on HeLa Kyoto [1] was -0.0807. Further, the “solubility change mitosis (log2)” value with HeLa Kyoto [2] was -0.0464. Further, the melting temperature with HeLa Kyoto [3] (cell cycle stage: G1/S) was found to be 62.7 °C; in the series on HeLa Kyoto [3] (cell cycle stage: mitosis), 59.1 °C. Moreover, the thermal stability score with HeLa Kyoto [4] (setting [5]) was -2.61; with HeLa Kyoto [4] (cell cycle stage: mitosis) it was -5.18.

For “MAGIAAKLAKDREAAEGLGSHDRAIKYLNQDYEALRNECLEAGTLFQDPSFPAIPSALGFKELGPYSSKTRGIEWKRPTEICADPQFIIGGATRTDICQGALGDCWLLAAIASLTLNEEILARVVPLNQSFQENYAGIFHFQFWQYGEWVEVVVDDRLPTKDGELLFVHSAEGSEFWSALLEKAYAKINGCYEALSGGATTEGFEDFTGGIAEWYELKKPPPNLFKIIQKALQKGSLLGCSIDITSAADSEAITFQKLVKGHAYSVTGAEEVESNGSLQKLIRIRNPWGEVEWTGRWNDNCPSWNTIDPEERERLTRRHEDGEFWMSFSDFLRHYSRLEICNLTPDTLTSDTYKKWKLTKMDGNWRRGSTAGGCRNYPNTFWMNPQYLIKLEEEDEDEEDGESGCTFLVGLIQKHRRRQRKMGEDMHTIGFGIYEVPEELSGQTNIHLSKNFFLTNRARERSDTFINLREVLNRFKLPPGEYILVPSTFEPNKDGDFCIRVFSEKKADYQAVDDEIEANLEEFDISEDDIDDGFRRLFAQLAGEDAEISAFELQTILRRVLAKRQDIKSDGFSIETCKIMVDMLDSDGSGKLGLKEFYILWTKIQKYQKIYREIDVDRSGTMNSYEMRKALEEAGFKMPCQLHQVIVARFADDQLIIDFDNFVRCLVRLETLFKIFKQLDPENTGTIELDLISWLCFSVL [CAPN2]”, in the series on HeLa Kyoto [1], the “solubility in G1/S (log2)” value was -0.0212. The “solubility change mitosis (log2)” value in the series on HeLa Kyoto [2] is -0.183. Moreover, the melting temperature in the series on HeLa Kyoto [3] (cell cycle stage: G1/S) amounted to 55.4 °C; with HeLa Kyoto [3] (cell cycle stage: mitosis) it was 54.9 °C. In addition, the values for the thermal stability score in the series with HeLa Kyoto [4] (setting [5]) and with HeLa Kyoto [4] (cell cycle stage: mitosis) were -0.784 and -1.57, respectively.

Take “METAEKECGALGGLFQAIVNDMKSSYPIWEDFNSKATKLHSQLRTTVLAAVAFLDAFQKVADMATNTRGATRDIGSALTRMCMRHRSIETKLRQFTNALLESLINPLQERIEDWKKAANQLDKDHAKEYKRARHEIKKKSSDTLKLQKKARKELLGKGDLQPQLDSALQDVNDMYLLLEETEKQAVRRALIEERGRFCTFITFLQPVVNGELTMLGEITHLQGIIDDLVVLTAEPHKLPPASEQVIKDLKGSDYSWSYQTPPSSPSSSSSRKSSMCSAPSSSSSAKGGGAPWPGGAQTYSPSSTCRYRSLAQPATTTARLSSVSSHDSGFVSQDATYSKPPSPMPSDITSQKSSSSASSEASETCQSVSECSSPTSDWSKVGSHEQPSGATLQRRKDRVELLRDTEPGPASGGTLGPSGEEAPRPRMSPATIAAKHGEEVSPAASDLAMVLTRGLSLEHQKSSRDSLQYSSGYSTQTTTPSCSEDTIPSQGSDYDCYSVNGDADSEGPPEFDKSSTIPRNSNIAQNYRRLIQTKRPASTAGLPTAGLPTATGLPSGAPPGVATIRRTPSTKPTVRRALSSAGPIPIRPPIVPVKTPTVPDSPGYMGPTRAGSEECVFYTDETASPLAPDLAKASPKRLSLPNTAWGSPSPEAAGYPGAGAEDEQQQLAANRHSLVEKLGELVAGAHALGEGQFPFPTALSATPTEETPTPPPAATSDPPAEDMLVAIRRGVRLRRTVTNDRSAPRIL [MTSS1L]”: the “solubility in G1/S (log2)” value in the series with HeLa Kyoto [1] came out at 0.191. The “solubility change mitosis (log2)” value in the series on HeLa Kyoto [2] was -0.0468. Further, the figures for the melting temperature with HeLa Kyoto [3] (cell cycle stage: G1/S) and with HeLa Kyoto [3] (cell cycle stage: mitosis) were 53.5 °C and 54.2 °C, respectively. The thermal stability score with HeLa Kyoto [4] (setting [5]) amounted to 0.647; in the series on HeLa Kyoto [4] (cell cycle stage: mitosis), 0.625.

For the substance “MAFLRSMWGVLSALGRSGAELCTGCGSRLRSPFSFVYLPRWFSSVLASCPKKPVSSYLRFSKEQLPIFKAQNPDAKTTELIRRIAQRWRELPDSKKKIYQDAYRAEWQVYKEEISRFKEQLTPSQIMSLEKEIMDKHLKRKAMTKKKELTLLGKPKRPRSAYNVYVAERFQEAKGDSPQEKLKTVKENWKNLSDSEKELYIQHAKEDETRYHNEMKSWEEQMIEVGRKDLLRRTIKKQRKYGAEEC [TFAM]”, in the series with HeLa Kyoto [1], the “solubility in G1/S (log2)” value is 0.578. Also, in the series on HeLa Kyoto [2], the “solubility change mitosis (log2)” value is 0.546. In addition, the melting temperature in the series with HeLa Kyoto [3] (cell cycle stage: G1/S) amounted to 53.1 °C; in the series with HeLa Kyoto [3] (cell cycle stage: mitosis), 53 °C. In addition, the thermal stability score in the series with HeLa Kyoto [4] (setting [5]) was -1.96; with HeLa Kyoto [4] (cell cycle stage: mitosis), -1.16.

On to RNF213, for which, in the series with HeLa Kyoto [1], the “solubility in G1/S (log2)” value was -0.346. Also, the “solubility change mitosis (log2)” value in the series with HeLa Kyoto [2] is -0.11. Moreover, the melting temperature worked out at 49.9 °C with HeLa Kyoto [3] (cell cycle stage: G1/S) and 49.8 °C in the series with HeLa Kyoto [3] (cell cycle stage: mitosis). Further, the thermal stability score in the series on HeLa Kyoto [4] (setting [5]) was determined as 0.57; in the series on HeLa Kyoto [4] (cell cycle stage: mitosis) it was 1.78.

As to “MRSSCVLLTALVALAAYYVYIPLPGSVSDPWKLMLLDATFRGAQQVSNLIHYLGLSHHLLALNFIIVSFGKKSAWSSAQVKVTDTDFDGVEVRVFEGPPKPEEPLKRSVVYIHGGGWALASAKIRYYDELCTAMAEELNAVIVSIEYRLVPKVYFPEQIHDVVRATKYFLKPEVLQKYMVDPGRICISGDSAGGNLAAALGQQFTQDASLKNKLKLQALIYPVLQALDFNTPSYQQNVNTPILPRYVMVKYWVDYFKGNYDFVQAMIVNNHTSLDVEEAAAVRARLNWTSLLPASFTKNYKPVVQTTGNARIVQELPQLLDARSAPLIADQAVLQLLPKTYILTCEHDVLRDDGIMYAKRLESAGVEVTLDHFEDGFHGCMIFTSWPTNFSVGIRTRNSYIKWLDQNL [NCEH1]”, the “solubility in G1/S (log2)” value with HeLa Kyoto [1] was 0.156. Moreover, the “solubility change mitosis (log2)” value in the series with HeLa Kyoto [2] is -0.118. In addition, the figures for the melting temperature in the series with HeLa Kyoto [3] (cell cycle stage: G1/S) and in the series on HeLa Kyoto [3] (cell cycle stage: mitosis) were 57.4 °C and 57.7 °C, respectively. Also, the thermal stability score in the series on HeLa Kyoto [4] (setting [5]) is -0.627; with HeLa Kyoto [4] (cell cycle stage: mitosis), -0.868.
